Data on 3 molecules can be found in patent US20240018240A1 (Hoffmann-La Roche, published 2024).

The target in assay [1] is T1, Human CD3ε stalk-Fc(knob)-Avi/CD3δ stalk-Fc(hole) (human).
T1 construct: Heterodimer of CD3 delta and CD3 epsilon ectodomains fused to a human Fc domain with knob-into-hole modifications and C-terminal Avi-tag; also called human CD3ε/δ; CD3ε/δ
Description: SPR (Biacore T200); biotinylated human CD3ε/δ on SA chip, TCB injected at 2 µg/ml; normalised to anti-huIgG capture, relative to the non-stressed sample. The protocol:
In order to assess the effect of the deamidation site removal and its effect on the stability of the antibodies, the anti-CD3 antibodies (in TCB format) were incubated for 14 days at 37° C., pH 7.4 and at 40° C., pH 6 and further analyzed by SPR for their binding capability to human CD3ε/δ. Samples stored at −80° C. pH 6 were used as reference. The reference samples and the samples stressed at 40° C. were in 20 mM His, 140 mM NaCl, pH 6.0, and the samples stressed at 37° C. in PBS, pH 7.4, all at a concentration of 1.0 mg/ml. After the stress period (14 days) samples in PBS were dialyzed back to 20 mM His, 140 mM NaCl, pH 6.0 for further analysis.
All SPR experiments were performed on a Biacore T200 instrument (GE Healthcare) at 25° C. with HBS-P+(10 mM HEPES, 150 mM NaCl pH 7.4, 0.05% Surfactant P20) as running and dilution buffer. Biotinylated human CD3ε/δ (see Example 3, SEQ ID NOs 24 and 25) as well as biotinylated anti-huIgG (Capture Select, Thermo Scientific, #7103262100) were immobilized on a Series S Sensor Chip SA (GE Healthcare, #29104992), resulting in surface densities of at least 1000 resonance units (RU). Anti-CD3 antibodies with a concentration of 2 μg/ml were injected for 30 s at a flow rate of 5 μl/min, and dissociation was monitored for 120 s. The surface was regenerated by injecting 10 mM glycine pH 1.5 for 60 s. Bulk refractive index differences were corrected by subtracting blank injections and by subtracting the response obtained from a blank control flow cell. For evaluation, the binding response 5 seconds after injection end was taken. To normalize the binding signal, the CD3 binding was divided by the anti-huIgG response (the signal (RU) obtained upon capture of the CD3 antibody on the immobilized anti-huIgG antibody). The relative binding activity was calculated by referencing each temperature stressed sample to the corresponding, non-stressed sample.

Assay [2] deals with T2, Cynomolgus CD3ε stalk-Fc(knob)-Avi/CD3δ stalk-Fc(hole) (cynomolgus).
T2 construct: Heterodimeric Fc fusion, soluble analyte in SPR; also called cynomolgus CD3ε/δ
Description: SPR (Biacore T200, 25°C); TCB captured by anti-PG antibody on C1 chip, CD3ε/δ-Fc as analyte; t1/2 = ln 2/koff. From the text:
(§1) For affinity measurements, TCB molecules were captured on a C1 sensorchip (GE Healthcare) surface with immobilized anti-Fc (P329G) IgG (an antibody that specifically binds human IgG₁ Fc (P329G); “anti-PG antibody”—see WO 2017/072210, incorporated herein by reference). The experimental setup is schematically depicted in FIG. 3. Capture IgG was coupled to the sensorchip surface by direct immobilization of around 400 resonance units (RU) using the standard amine coupling kit (GE Healthcare Life Sciences).
(§2) To analyze the interaction to CD3, TCB molecules were captured for 80 s at 25 nM with a flow rate of 10 μl/min. Human and cynomolgus CD3ε stalk-Fc(knob)-Avi/CD3δ stalk-Fc(hole) (CD3ε/δ, see SEQ ID NOs 24 and 25 (human) and SEQ ID NOs 26 and 27 (cynomolgus)) were passed at a concentration of 0.122-125 nM with a flow rate of 30 μl/min through the flow cells for 300 s. The dissociation was monitored for 800 s.
(§3) Kinetic constants were derived using the Biacore T200 Evaluation Software (GE Healthcare Life Sciences), to fit rate equations for 1:1 Langmuir binding by numerical integration. The half-life (t_{1/2}) of the interaction was calculated using the formula t_{1/2}=ln 2/koff.

Assay [3] concerns the target T1, Human CD3ε stalk-Fc(knob)-Avi/CD3δ …. Described as above.
From the text: as §1, §2, §3

The target of assay [4] is T2, Cynomolgus CD3ε stalk-Fc(knob)-Avi/CD3δ …. Description: SPR (Biacore T200, 25°C); TCB captured by anti-PG antibody on C1 chip, CD3ε/δ-Fc as analyte; 1:1 Langmuir fit.
From the text: as §1, §2, §3

For assay [5], the target named is T1, Human CD3ε stalk-Fc(knob)-Avi/CD3δ …. The assay is described as above.
From the text: as §1, §2, §3

The target is the same in assay [6]. Description: SPR (Biacore T200, 25°C); monovalent IgG captured by anti-PG antibody on C1 chip, CD3ε/δ-Fc as analyte; t1/2 = ln 2/koff. The protocol:
as §3
(§4) SPR experiments were performed as described in Example 3, with the monovalent IgG molecules prepared in Example 6.
(§5) To analyze the interaction to CD3, IgG molecules were captured for 240 s at 50 nM with a flow rate of 5 μl/min. Human and cynomolgus CD3ε stalk-Fc(knob)-Avi/CD3δ-stalk-Fc(hole) were passed at a concentration of 0.061-250 nM with a flow rate of 30 μl/min through the flow cells for 300 s. The dissociation was monitored for 800 s.

Assay [7] shares this target. Description: SPR (Biacore T200, 25°C); monovalent IgG captured by anti-PG antibody on C1 chip, CD3ε/δ-Fc as analyte; 1:1 Langmuir fit; triplicates. The protocol:
as §3, §4, §5

B1: TYRP1 T-cell bispecific antibody (TCB) comprising anti-CD3 antibody CD3opt (bispecific antibody, human IgG1, kappa, L234A L235A)
heavy 1: not shown
heavy 2: QVQLVQSGAEVKKPGASVKVSCKASGFNIKDYFLHWVRQAPGQGLEWMGWINPDNGNTVYAQKFQGRVTMTADTSTSTVYMELSSLRSEDTAVYYCTRRDYTYEKAALDYWGQGTLVTVSSASTKGPSVFPLAPSSKSTSGGTAALGCLVEDYFPEPVTVSWNSGALTSGVHTFPAVLQSSGLYSLSSVVTVPSSSLGTQTYICNVNHKPSNTKVDEKVEPKSCDKTHTCPPCPAPEAAGGPSVFLFPPKPKDTLMISRTPEVTCVVVDVSHEDPEVKFNWYVDGVEVHNAKTKPREEQYNSTYRVVSVLTVLHQDWLNGKEYKCKVSNKALGAPIEKTISKAKGQPREPQVCTLPPSRDELTKNQVSLSCAVKGFYPSDIAVEWESNGQPENNYKTTPPVLDSDGSFFLVSKLTVDKSRWQQGNVFSCSVMHEALHNHYTQKSLSLSP
light 1: DIQMTQSPSSLSASVGDRVTITCRASGNIYNYLAWYQQKPGKVPKLLIYDAKTLADGVPSRFSGSGSGTDFTLTISSLQPEDVATYYCQHFWSLPFTFGQGTKLEIKRTVAAPSVFIFPPSDRKLKSGTASVVCLLNNFYPREAKVQWKVDNALQSGNSQESVTEQDSKDSTYSLSSTLTLSKADYEKHKVYACEVTHQGLSSPVTKSFNRGEC
light 2: EVQLLESGGGLVQPGGSLRLSCAASGFQFSSYAMNWVRQAPGKGLEWVSRIRSKYNNYATYYADSVKGRFTISRDDSKNTLYLQMNSLRAEDTAVYYCVRHTTFPSSYVSYYGYWGQGTLVTVSSASVAAPSVFIFPPSDEQLKSGTASVVCLLNNFYPREAKVQWKVDNALQSGNSQESVTEQDSKDSTYSLSSTLTLSKADYEKHKVYACEVTHQGLSSPVTKSFNRGEC
notes: 2+1 IgG CrossFab, inverted, with charge modifications; human IgG1 Fc with knob-into-hole and P329G LALA; also called CD3opt (in TCB format)
Take B1: in assay [1], the “binding activity [%], 2 weeks at pH 6.0/40°C” value worked out at 97% and the “binding activity [%], 2 weeks at pH 7.4/37°C” value amounted to 92%. In addition, in assay [2], the t1/2 amounted to 5.02 min. Besides, the t1/2 in assay [3] came out at 1.86 min. In assay [4], this molecule showed a Kd of 0.86 nM, a koff of 0.0023 s⁻¹ and an association rate constant (kon) of 2.67e+06 M⁻¹ s⁻¹. For the same molecule, in assay [5], the Kd was determined as 4.3 nM, the koff was determined as 0.00621 s⁻¹ and the association rate constant (kon) was 1.44e+06 M⁻¹ s⁻¹.

B2: anti-CD3 antibody CD3orig in monovalent human IgG1 format (antibody)
heavy: not shown
chain: DKTHTCPPCPAPEAAGGPSVFLFPPKPKDTLMISRTPEVTCVVVDVSHEDPEVKFNWYVDGVEVHNAKTKPREEQYNSTYRVVSVLTVLHQDWLNGKEYKCKVSNKALGAPIEKTISKAKGQPREPQVCTLPPSRDELTKNQVSLSCAVKGFYPSDIAVEWESNGQPENNYKTTPPVLDSDGSFFLVSKLTVDKSRWQQGNVFSCSVMHEALHNHYTQKSLSLSP
light: EVQLLESGGGLVQPGGSLRLSCAASGFTFSTYAMNWVRQAPGKGLEWVSRIRSKYNNYATYYADSVKGRFTISRDDSKNTLYLQMNSLRAEDTAVYYCVRHGNFGNSYVSWFAYWGQGTLVTVSSASVAAPSVFIFPPSDEQLKSGTASVVCLLNNFYPREAKVQWKVDNALQSGNSQESVTEQDSKDSTYSLSSTLTLSKADYEKHKVYACEVTHQGLSSPVTKSFNRGEC
notes: also called CD3orig (in monovalent IgG format)
B2: the t1/2 in assay [6] amounted to 3.98 min. In assay [7], this molecule came in with a Kd of 4.94 nM, an off-rate constant (koff) of 0.0029 s⁻¹ and a kon of 587000 M⁻¹ s⁻¹.

B3: TYRP1 T-cell bispecific antibody (TCB) comprising anti-CD3 antibody CD3orig (bispecific antibody, human IgG1, kappa, L234A L235A)
heavy 1: not shown
heavy 2: QVQLVQSGAEVKKPGASVKVSCKASGFNIKDYFLHWVRQAPGQGLEWMGWINPDNGNTVYAQKFQGRVTMTADTSTSTVYMELSSLRSEDTAVYYCTRRDYTYEKAALDYWGQGTLVTVSSASTKGPSVFPLAPSSKSTSGGTAALGCLVEDYFPEPVTVSWNSGALTSGVHTFPAVLQSSGLYSLSSVVTVPSSSLGTQTYICNVNHKPSNTKVDEKVEPKSCDKTHTCPPCPAPEAAGGPSVFLFPPKPKDTLMISRTPEVTCVVVDVSHEDPEVKFNWYVDGVEVHNAKTKPREEQYNSTYRVVSVLTVLHQDWLNGKEYKCKVSNKALGAPIEKTISKAKGQPREPQVCTLPPSRDELTKNQVSLSCAVKGFYPSDIAVEWESNGQPENNYKTTPPVLDSDGSFFLVSKLTVDKSRWQQGNVFSCSVMHEALHNHYTQKSLSLSP
light 1: DIQMTQSPSSLSASVGDRVTITCRASGNIYNYLAWYQQKPGKVPKLLIYDAKTLADGVPSRFSGSGSGTDFTLTISSLQPEDVATYYCQHFWSLPFTFGQGTKLEIKRTVAAPSVFIFPPSDRKLKSGTASVVCLLNNFYPREAKVQWKVDNALQSGNSQESVTEQDSKDSTYSLSSTLTLSKADYEKHKVYACEVTHQGLSSPVTKSFNRGEC
light 2: EVQLLESGGGLVQPGGSLRLSCAASGFTFSTYAMNWVRQAPGKGLEWVSRIRSKYNNYATYYADSVKGRFTISRDDSKNTLYLQMNSLRAEDTAVYYCVRHGNFGNSYVSWFAYWGQGTLVTVSSASVAAPSVFIFPPSDEQLKSGTASVVCLLNNFYPREAKVQWKVDNALQSGNSQESVTEQDSKDSTYSLSSTLTLSKADYEKHKVYACEVTHQGLSSPVTKSFNRGEC
notes: 2+1 IgG CrossFab, inverted, with charge modifications; human IgG1 Fc with knob-into-hole and P329G LALA; also called CD3orig (in TCB format)
In the case of B3, in assay [1], the “binding activity [%], 2 weeks at pH 6.0/40°C” value stood at 95% and the “binding activity [%], 2 weeks at pH 7.4/37°C” value was 65%. In assay [3], the t1/2 stood at 3.42 min. Further, in assay [5], binding was characterised by a dissociation constant (Kd) of 6.54 nM, the koff was 0.00338 s⁻¹ and the kon was 517000 M⁻¹ s⁻¹.
